Assay results published in publication PMC7099005, “Function-based high-throughput screening for antibody antagonists and agonists against G protein-coupled receptors” (Communications Biology, 2020).

Key:
[1] = target: T1, human apelin receptor (APJ), wild type (Homo sapiens, UniProt P35414); assay: flow cytometry on cells; 2 x 10^5 HEK293FT cells stably expressing HA-tagged huAPJ or its mutants stained with 250 nM soluble sdAb at 4 °C for 1 h; mouse anti-his antibody and Alexa Fluor 488 goat anti-mouse; sdAb GeoMean relative to anti-HA staining, normalised to WT APJ; details: one partner purified
T1 construct: The functional assays used other APJ cell lines (PathHunter CHO-k1/APJ, U2OS AGTRL1, Tango/APJ with a C-terminal TEV site and transcription factor); this molecule stands for them in the functional rows; also called huAPJ; WT APJ
T1 sequence (P35414 whole entry): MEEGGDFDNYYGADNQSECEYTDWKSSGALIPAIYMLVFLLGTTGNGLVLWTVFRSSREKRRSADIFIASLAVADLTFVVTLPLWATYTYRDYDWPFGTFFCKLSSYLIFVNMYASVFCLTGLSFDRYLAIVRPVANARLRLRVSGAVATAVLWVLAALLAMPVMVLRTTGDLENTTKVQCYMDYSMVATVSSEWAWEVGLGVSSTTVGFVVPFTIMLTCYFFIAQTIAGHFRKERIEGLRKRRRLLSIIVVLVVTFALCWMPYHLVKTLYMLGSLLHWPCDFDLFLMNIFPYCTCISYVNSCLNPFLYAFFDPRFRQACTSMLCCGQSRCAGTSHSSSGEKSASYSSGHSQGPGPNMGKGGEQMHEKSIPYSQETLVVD

[2] = target: T1, human apelin receptor (APJ), wild type; assay: cell-based or functional assay

Binder | binding result [1] | IC50 of soluble sdAb in APJ PathHunter β-arrestin assay, antagonist mode (apelin 13 at EC80; blocks apelin 13 with APJ) [2] [nM]
sdAb agonist JN300 (VHH, camelid sdAb from a camel immunised with human APJ nanodiscs; source: FreeStyle 293F, transient (pTT5), purified (Ni-NTA)) VHH: HVQLVESGGGSVQAGGSLRLSCAASGYVGSMGWFRQAPGKDREGVAAFDFDGRAKHADSVKGRFTISRDNAKNTLYLQMNNLKPEDTAMYYCARSARQLLMLSHNPSDFGYWGQGTQVTVSS | binds | 
sdAb antagonist JN409 (VHH) VHH: QVQLVESGGGSVQSGGSLRLSCAASGDTSSRSCMGWFRQAPGKEREWVGRILNAGITSYADSVKGRFTISQDNVKNTLYLQMNSLNSEDTAIYYCAAGRTSYAGSWYCRYNYWGQGTQVTVSS |  | > 200
sdAb antagonist JN404 (VHH, camelid sdAb from a camel immunised with human APJ nanodiscs; source: FreeStyle 293F, transient (pTT5), purified (Ni-NTA)) VHH: QVQLVESGGGSVQAGGSLTLSCVGSGFSWSLNCMSWFRQAPGSEREGVAIFYSETGGAYYADSVEGRFSISQVNAGNTVLLRMNSLRPEDTAMYYCAAGYGCGSTESWWTYDYIFWGQGTLVTVSS | binds | 
sdAb antagonist JN406 (VHH) VHH: EVQLVESGGGSVQSGGSLRLSCAASGSTYRSHCMGWFRQAPGKEREGVAIMTSRGTTYADSVKGRFTISQDNTKNIFYLQMNSLKPEDTAMYYCAAVPRAGIGDGAFCKWNMKDSGSWGQGTLVTVSS |  | < 200
sdAb antagonist JN412 (VHH) VHH: HVQLVESGGGSVQAGGSLRLSCAASGSTYRSHCMGWFRQAPGKEREGVAIMTSRGTTYADSVKGRFTISQDNTKNIFYLQMNSLKPEDTAMYYCAAVPRAGIGDGAFCKWNMKDSGSWGQGTLVTVSS |  | < 200
sdAb antagonist JN400 (VHH) VHH: QVQLVESGGGSVQSGGSLRLSCAASGSTYRSHCMGWFRQAPGKEREEVAIMTRSRGTSYADSVKGRFTISQDNTKNILYLQMNSLKPEDTAMYYCAAVPRAGIGDGGYCKWNMKDSGSWGQGTLVTVSS |  | < 200
sdAb antagonist JN414 (VHH) VHH: QVQLVESGGGSVQSGGSLTLSCAASGSTYSSHCMGWFRQAPGKEREGVALMTRSRGTSYADSVKGRFTISQDNTKNILYLQMNSLKPEDTAMYYCAAVPRAGIESGAYCKWNMKDSGSWGQGTLVTVSS |  | < 200
sdAb antagonist JN402 (VHH) VHH: QVQLVESGGGSVQAGGSLRLSCAASGSTYSSHCMGWFRQAPGKEREEVALMTRARGTSYADSVKGRFTISQDNTKNILYLQMNSLKPEDTAMYYCAAVPRAGIETGAYCKWNMKDSGSWGQGTLVTVSS |  | < 200
sdAb antagonist JN413 (VHH) VHH: DVQLVESGGGSVQSGGSLRLSCAASGSTYRSHCMGWFRQAPGKEREEVAIMTRSRGTSYADSVKGRFTISQDNTKNILYLQMNSLKPEDTAMYYCAAVPRAGIGDGAYCKWNMKDSGSWGQGTLVTVSS |  | < 200
sdAb antagonist JN401 (VHH) VHH: HVQLVESGGGSVQSGGSLRLSCVASGITFSLYCMYWFRQAPGKEREAVASIRSTGATVYGDSVKGRFTISRDSAKNTLYLQMNSLNPEDTAMYYCAAAKKMLYGPGCGSYKDWGQGIQVTVSS |  | > 200
sdAb antagonist JN411 (VHH) VHH: HVQLVESGGGSVQAGGSLRLTCAASGLAYSRTCMGWFRQAPGKEREVVATIRRDGTTTYADSVKGRFTISRDNTRNTLALQMNSLKPEDSAMYYCAAVWVALGVPTSVCPSEYKFWGQGTLVTVSS |  | < 200
